From the supplement of paper PMC9112550, “Optimization of the antimicrobial peptide Bac7 by deep mutational scanning” (BMC Biology, 2022)

Tested on: Escherichia coli TOP10
Experiment: shrunken log2 fold change of peptide-encoding DNA abundance (4.5 h post-induction vs induction); higher = less antimicrobial activity (less host growth inhibition)
Conditions: time post-induction: 4.5 h; library: site-saturation at positions 5, 18, 19, 20
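Note: peptides expressed intracellularly from a pBAD plasmid library in pooled LB shake-flask culture, induced with 0.3% L-arabinose, DNA abundance read by NGS, three biological replicates, DESeq2 with apeglm shrinkage.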

| Sequence | shrunken log2 fold change |
| --- | --- |
| RRIRMRPPRLPRPRPRPYFRPRP | -0.575 |
| RRIRVRPPRLPRPRPRPCELPRP | -0.286 |
| RRIRMRPPRLPRPRPRPDQWPRP | 0.312 |
| RRIRIRPPRLPRPRPRPPSSPRP | -0.0293 |
| RRIRPRPPRLPRPRPRPMETPRP | -0.00904 |
| RRIRQRPPRLPRPRPRPAPWPRP | 0.548 |
| RRIRDRPPRLPRPRPRPDEKPRP | 0.0291 |
| RRIRGRPPRLPRPRPRPPFTPRP | 0.462 |
| RRIRIRPPRLPRPRPRPRNSPRP | 0.0503 |
| RRIRNRPPRLPRPRPRPVEIPRP | -0.0323 |
| RRIRVRPPRLPRPRPRPQFYPRP | -0.806 |
| RRIRGRPPRLPRPRPRPEDLPRP | 0.582 |
| RRIRTRPPRLPRPRPRPGHYPRP | -0.137 |
| RRIRARPPRLPRPRPRPNPLPRP | 0.32 |
| RRIRSRPPRLPRPRPRPVNGPRP | -0.00994 |
| RRIRMRPPRLPRPRPRPQWFPRP | -0.0662 |
| RRIRHRPPRLPRPRPRPRLQPRP | 0.0915 |
| RRIRCRPPRLPRPRPRPKNLPRP | -0.292 |
| RRIRRRPPRLPRPRPRPKLDPRP | 0.523 |
| RRIRPRPPRLPRPRPRPWAVPRP | -0.227 |
| RRIRSRPPRLPRPRPRPEHLPRP | -0.258 |
| RRIRKRPPRLPRPRPRPLIIPRP | -0.501 |
| RRIRERPPRLPRPRPRPMMRPRP | 0.169 |
| RRIRERPPRLPRPRPRPGEAPRP | 0.139 |
| RRIRARPPRLPRPRPRPPWFPRP | 0.36 |

| Sequence | shrunken log2 fold change |
| --- | --- |
| RRIRWRPPRLPRPRPRPDMNPRP | 0.143 |
| RRIRMRPPRLPRPRPRPYQCPRP | -0.118 |
| RRIRFRPPRLPRPRPRPWSWPRP | -0.169 |
| RRIRWRPPRLPRPRPRPPKFPRP | 0.419 |
| RRIRYRPPRLPRPRPRPLLQPRP | -0.309 |
| RRIRWRPPRLPRPRPRPDMMPRP | -0.0236 |
| RRIRWRPPRLPRPRPRPEVAPRP | 1.25 |
| RRIRPRPPRLPRPRPRPRFVPRP | 0.109 |
| RRIRIRPPRLPRPRPRPETMPRP | -0.108 |
| RRIRLRPPRLPRPRPRPNHMPRP | -0.326 |
| RRIRKRPPRLPRPRPRPGRQPRP | 0.143 |
| RRIRIRPPRLPRPRPRPHTYPRP | -0.715 |
| RRIRGRPPRLPRPRPRPMFLPRP | -0.0125 |
| RRIRFRPPRLPRPRPRPIKHPRP | -0.485 |
| RRIRWRPPRLPRPRPRPEGMPRP | 0.999 |
| RRIRCRPPRLPRPRPRPDRDPRP | 0.108 |
| RRIRLRPPRLPRPRPRPPMNPRP | -0.114 |
| RRIRERPPRLPRPRPRPHIQPRP | -0.705 |
| RRIRRRPPRLPRPRPRPKWDPRP | 0.139 |
| RRIRFRPPRLPRPRPRPFNNPRP | -0.262 |
| RRIRGRPPRLPRPRPRPFGAPRP | 0.793 |
| RRIRFRPPRLPRPRPRPNFEPRP | -0.0264 |
| RRIRWRPPRLPRPRPRPYVSPRP | -0.0404 |
| RRIRRRPPRLPRPRPRPALAPRP | 0.516 |
| RRIRHRPPRLPRPRPRPYSCPRP | -0.0837 |

| Sequence | shrunken log2 fold change |
| --- | --- |
| RRIRDRPPRLPRPRPRPPIDPRP | 0.0165 |
| RRIRYRPPRLPRPRPRPVKVPRP | 0.0182 |
| RRIRFRPPRLPRPRPRPNYRPRP | 0.055 |
| RRIRPRPPRLPRPRPRPFKIPRP | 0.0869 |
| RRIRCRPPRLPRPRPRPNFWPRP | -0.136 |
| RRIRLRPPRLPRPRPRPDPKPRP | 0.331 |
| RRIRVRPPRLPRPRPRPIGEPRP | 0.0407 |
| RRIRNRPPRLPRPRPRPMSDPRP | -0.00992 |
| RRIRTRPPRLPRPRPRPVWFPRP | 0.0412 |
| RRIRIRPPRLPRPRPRPVLHPRP | -0.447 |
| RRIRVRPPRLPRPRPRPVCVPRP | -0.0658 |
| RRIRNRPPRLPRPRPRPPLGPRP | 0.331 |
| RRIRMRPPRLPRPRPRPHQMPRP | 0.126 |
| RRIRGRPPRLPRPRPRPVTFPRP | 0.172 |
| RRIRLRPPRLPRPRPRPRGWPRP | 0.722 |
| RRIRNRPPRLPRPRPRPFALPRP | 0.814 |
| RRIRPRPPRLPRPRPRPDHWPRP | 0.0752 |
| RRIRPRPPRLPRPRPRPLYMPRP | -0.673 |
| RRIRCRPPRLPRPRPRPKIPPRP | -0.284 |
| RRIRDRPPRLPRPRPRPFGIPRP | 0.0183 |
| RRIRARPPRLPRPRPRPMVEPRP | 0.0234 |
| RRIRFRPPRLPRPRPRPKRLPRP | 0.0144 |
| RRIRMRPPRLPRPRPRPVHPPRP | 0.127 |
| RRIRDRPPRLPRPRPRPQYEPRP | -0.025 |
| RRIRMRPPRLPRPRPRPKADPRP | 2.35 |

| Sequence | shrunken log2 fold change |
| --- | --- |
| RRIRYRPPRLPRPRPRPNTGPRP | -0.195 |
| RRIRDRPPRLPRPRPRPWNRPRP | -0.339 |
| RRIRFRPPRLPRPRPRPCRSPRP | 0.974 |
| RRIRMRPPRLPRPRPRPRQFPRP | 0.582 |
| RRIRQRPPRLPRPRPRPYCVPRP | -0.00867 |
| RRIRWRPPRLPRPRPRPYKVPRP | -0.482 |
| RRIRSRPPRLPRPRPRPFQDPRP | -0.01 |
| RRIRDRPPRLPRPRPRPLEPPRP | 0.239 |
| RRIRKRPPRLPRPRPRPTMNPRP | -0.00264 |
| RRIRYRPPRLPRPRPRPKNIPRP | -0.127 |
| RRIRHRPPRLPRPRPRPIFFPRP | 0.0211 |
| RRIRDRPPRLPRPRPRPCCMPRP | 0.125 |
| RRIRWRPPRLPRPRPRPAKWPRP | 0.386 |
| RRIRNRPPRLPRPRPRPVDRPRP | 0.148 |
| RRIRIRPPRLPRPRPRPMWSPRP | 0.045 |
| RRIRARPPRLPRPRPRPRWNPRP | 0.00795 |
| RRIRFRPPRLPRPRPRPATMPRP | -0.0804 |
| RRIRNRPPRLPRPRPRPTHQPRP | 0.194 |
| RRIRCRPPRLPRPRPRPGVNPRP | -0.584 |
| RRIRSRPPRLPRPRPRPPVVPRP | 0.473 |
| RRIRWRPPRLPRPRPRPIMRPRP | 0.0401 |
| RRIRLRPPRLPRPRPRPRHHPRP | -0.0411 |
| RRIRIRPPRLPRPRPRPIIDPRP | -0.372 |
| RRIRMRPPRLPRPRPRPPFAPRP | 1.07 |
| RRIRRRPPRLPRPRPRPIFSPRP | 1.06 |

| Sequence | shrunken log2 fold change |
| --- | --- |
| RRIRWRPPRLPRPRPRPMHIPRP | 0.0409 |
| RRIRARPPRLPRPRPRPCYKPRP | -0.0942 |
| RRIRDRPPRLPRPRPRPTAFPRP | 0.231 |
| RRIRQRPPRLPRPRPRPEAEPRP | 0.302 |
| RRIRNRPPRLPRPRPRPHFWPRP | -0.285 |
| RRIRIRPPRLPRPRPRPDQMPRP | -0.393 |
| RRIRNRPPRLPRPRPRPINTPRP | -0.574 |
| RRIRGRPPRLPRPRPRPRPLPRP | 0.902 |
| RRIRIRPPRLPRPRPRPQAQPRP | -0.108 |
| RRIRCRPPRLPRPRPRPSDFPRP | -0.203 |
| RRIRGRPPRLPRPRPRPEQVPRP | 0.995 |
| RRIRCRPPRLPRPRPRPMFIPRP | -1.16 |
| RRIRLRPPRLPRPRPRPTHHPRP | 0.239 |
| RRIRMRPPRLPRPRPRPDHMPRP | 0.0296 |
| RRIRWRPPRLPRPRPRPWEQPRP | 0.0277 |
| RRIRLRPPRLPRPRPRPTLVPRP | -0.0392 |
| RRIRPRPPRLPRPRPRPNFAPRP | 0.445 |
| RRIRERPPRLPRPRPRPISVPRP | -0.137 |
| RRIRERPPRLPRPRPRPCREPRP | -0.129 |
| RRIRIRPPRLPRPRPRPSAEPRP | -0.0944 |
| RRIRTRPPRLPRPRPRPHMMPRP | -0.586 |
| RRIRCRPPRLPRPRPRPWYGPRP | -0.49 |
| RRIRQRPPRLPRPRPRPCDFPRP | 0.0344 |
| RRIRCRPPRLPRPRPRPMTRPRP | -0.275 |
| RRIRERPPRLPRPRPRPTMPPRP | -0.124 |
